Data from article PMC10899793, “Toxin release by conditional remodelling of ParDE1 from Mycobacterium tuberculosis leads to gyrase inhibition” (Nucleic Acids Research, 2023).

What was measured:
[1] = target: ParE2 toxin of Mycobacterium tuberculosis H37Rv (Mycobacterium tuberculosis H37Rv) (UniProt P9WHG5); experiment: SEC
[2] = target: ParE2 toxin of Mycobacterium tuberculosis H37Rv (Mycobacterium tuberculosis H37Rv) (UniProt P9WHG5); experiment: crystal structure

## ParD2 antitoxin of Mycobacterium tuberculosis H37Rv (natural protein)
[1]
  stoichiometry N (ParD2 per ParE2 (2:2 heterotetramer)): 1
[2]
  stoichiometry N (ParD2 per ParE2 (1:1 heterodimer)): 1
